According to the supplement of paper PMC11246515:
± gives the standard deviation of the averaged measurements.

Assay: total protein half-life in vivo (active degradation + dilution); higher = more stable protein
[1] = E. coli NCM3722 delta-clpP delta-lon delta-hslV, growth: N-lim chemostat, doubling time 6 h
[2] = E. coli NCM3722 delta-clpP, growth: N-lim chemostat, doubling time 6 h
[3] = E. coli NCM3722 delta-hslV, growth: N-lim chemostat, doubling time 6 h
[4] = E. coli NCM3722 delta-lon, growth: N-lim chemostat, doubling time 6 h
[5] = E. coli NCM3722 delta-smpB, growth: N-lim chemostat, doubling time 6 h
[6] = wild type E. coli NCM3722, growth: C-lim chemostat, doubling time 3 h
[7] = wild type E. coli NCM3722, growth: C-lim chemostat, doubling time 6 h
[8] = wild type E. coli NCM3722, growth: C-lim chemostat, doubling time 12 h
[9] = wild type E. coli NCM3722, growth: N-lim chemostat, doubling time 6 h
[10] = wild type E. coli NCM3722, growth: N-lim chemostat, doubling time 12 h
[11] = wild type E. coli NCM3722, growth: P-lim chemostat, doubling time 6 h
[12] = wild type E. coli NCM3722, growth: P-lim chemostat, doubling time 12 h

| Sequence | total protein half-life in vivo [1] [h] | total protein half-life in vivo [2] [h] | total protein half-life in vivo [3] [h] | total protein half-life in vivo [4] [h] | total protein half-life in vivo [5] [h] | total protein half-life in vivo [6] [h] | total protein half-life in vivo [7] [h] | total protein half-life in vivo [8] [h] | total protein half-life in vivo [9] [h] | total protein half-life in vivo [10] [h] | total protein half-life in vivo [11] [h] | total protein half-life in vivo [12] [h] |
| --- | --- | --- | --- | --- | --- | --- | --- | --- | --- | --- | --- | --- |
| MATHERRVVFFDLDGTLHQQDMFGSFLRYLLRRQPLNALLVLPLLPIIAIALLIKGRAARWPMSLLLWGCTFGHSEARLQTLQADFVRWFRDNVTAFPLVQERLTTYLLSSDADIWLITGSPQPLVEAVYFDTPWLPRVNLIASQIQRGYGGWVLTMRCLGHEKVAQLERKIGTPLRLYSGYSDSNQDNPLLYFCQHRWRVTPRGELQQLE [P0AD42] | 3.86 ± 0.9 | 2.84 | 2.383 ± 0.018 | 2.07 | 2.7 ± 0.1 | 2.27 | 3.96 | 9.2 ± 0.12 | 2.62 ± 0.42 | 4.48 ± 0.64 | 1.82 | 3.39 |
| MKLNIFTKSMIGMGLVCSALPALAMEAWNNQQGGNKYQVIFDGKIYENAWWVSSTNCPGKAKANDATNPWRLKRTATAAEISQFGNTLSCEKSGSSSSSNSNTPASNTPANGGSATPAQGTVPSNSSVVAWNKQQGGQTWYVVFNGAVYKNAWWVASSNCPGDAKSNDASNPWRYVRAATATEISETSNPQSCTSAPQPSPDVKPAPDVKPAPDVQPAPADKSNDNYAVVAWKGQEGSSTWYVIYNGGIYKNAWWVGAANCPGDAKENDASNPWRYVRAATATEISQYGNPGSCSVKPDNNGGAVTPVDPTPETPVTPTPDNSEPSTPADSVNDYSLQAWSGQEGSEIYHVIFNGNVYKNAWWVGSKDCPRGTSAENSNNPWRLERTATAAELSQYGNPTTCEIDNGGVIVADGFQASKAYSADSIVDYNDAHYKTSVDQDAWGFVPGGDNPWKKYEPAKAWSASTVYVKGDRVVVDGQAYEALFWTQSDNPALVANQNATGSNSRPWKPLGKAQSYSNEELNNAPQFNPETLYASDTLIRFNGVNYISQSKVQKVSPSDSNPWRVFVDWTGTKERVGTPKKAWPKHVYAPYVDFTLNTIPDLAALAKNHNVNHFTLAFVVSKDANTCLPTWGTAYGMQNYAQYSKIKALREAGGDVMLSIGGANNAPLAASCKNVDDLMQHYYDIVDNLNLKVLDFDIEGTWVADQASIERRNLAVKKVQDKWKSEGKDIAIWYTLPILPTGLTPEGMNVLSDAKAKGVELAGVNVMTMDYGNAICQSANTEGQNIHGKCATSAIANLHSQLKGLHPNKSDAEIDAMMGTTPMVGVNDVQGEVFYLSDARLVMQDAQKRNLGMVGIWSIARDLPGGTNLSPEFHGLTKEQAPKYAFSEIFAPFTKQ | 4.89 ± 0.41 | 7.07 ± 0.34 | 5.22 ± 1.2 | – | 5.97 ± 0.68 | – | 5.72 | 10.9 ± 1.9 | 5.87 ± 0.36 | 12.9 ± 0.98 | 6.31 ± 0.59 | – |
| MSSKLVLVLNCGSSSLKFAIIDAVNGEEYLSGLAECFHLPEARIKWKMDGNKQEAALGAGAAHSEALNFIVNTILAQKPELSAQLTAIGHRIVHGGEKYTSSVVIDESVIQGIKDAASFAPLHNPAHLIGIEEALKSFPQLKDKNVAVFDTAFHQTMPEESYLYALPYNLYKEHGIRRYGAHGTSHFYVTQEAAKMLNKPVEELNIITCHLGNGGSVSAIRNGKCVDTSMGLTPLEGLVMGTRSGDIDPAIIFHLHDTLGMSVDAINKLLTKESGLLGLTEVTSDCRYVEDNYATKEDAKRAMDVYCHRLAKYIGAYTALMDGRLDAVVFTGGIGENAAMVRELSLGKLGVLGFEVDHERNLAARFGKSGFINKEGTRPAVVIPTNEELVIAQDASRLTA [P0A6A3] | 4.23 ± 0.13 | 6.03 ± 2.6 | 4.41 ± 0.054 | 4.89 ± 0.78 | 4.28 ± 0.21 | 3.25 ± 0.17 | 6.35 ± 0.1 | 12.1 ± 0.56 | 4.58 ± 0.21 | 8.13 ± 0.2 | 5.88 ± 0.24 | 13.1 ± 1.2 |
| MLYIDKATILKFDLEMLKKHRRAIQFIAVLLFIVGLLCISFPFVSGDILSTVVGALLICSGIALIVGLFSNRSHNFWPVLSGFLVAVAYLLIGYFFIRAPELGIFAIAAFIAGLFCVAGVIRLMSWYRQRSMKGSWLQLVIGVLDIVIAWIFLGATPMVSVTLVSTLVGIELIFSAASLFSFASLFVKQQ [P0AET5] | 5.35 ± 0.17 | 5.39 ± 0.49 | 5.44 ± 0.84 | 5.08 ± 0.17 | 6.6 ± 0.066 | 2.2 | – | > 16 | 5.33 ± 0.29 | 10.1 | 5.5 ± 0.65 | 10.1 ± 1.1 |
| MAEKQTAKRNRREEILQSLALMLESSDGSQRITTAKLAASVGVSEAALYRHFPSKTRMFDSLIEFIEDSLITRINLILKDEKDTTARLRLIVLLLLGFGERNPGLTRILTGHALMFEQDRLQGRINQLFERIEAQLRQVLREKRMREGEGYTTDETLLASQILAFCEGMLSRFVRSEFKYRPTDDFDARWPLIAAQLQ [P0C093] | 6.82 ± 0.62 | – | 5.04 ± 0.42 | 5.5 ± 0.72 | 4.65 ± 0.39 | 2.5806 ± 0.0014 | 5.49 ± 0.15 | 9.76 ± 1.4 | 4.89 ± 0.97 | 9.106 ± 0.086 | 4.14 ± 0.13 | 7.01 ± 0.77 |
| MIKHLVAPLVFTSLILTGCQSPQGKFTPEQVAAMQSYGFTESAGDWSLGLSDAILFAKNDYKLLPESQQQIQTMAAKLASTGLTHARMDGHTDNYGEDSYNEGLSLKRANVVADAWAMGGQIPRSNLTTQGLGKKYPIASNKTAQGRAENRRVAVVITTP | 1.39 | – | – | – | – | 0.967 | – | – | 1.84 | – | 1.9 | 4.97 |
| MESWLIPAAPVTVVEEIKKSRFITMLAHTDGVEAAKAFVESVRAEHPDARHHCVAWVAGAPDDSQQLGFSDDGEPAGTAGKPMLAQLMGSGVGEITAVVVRYYGGILLGTGGLVKAYGGGVNQALRQLTTQRKTPLTEYTLQCEYHQLTGIEALLGQCDGKIINSDYQAFVLLRVALPAAKVAEFSAKLADFSRGSLQLLAIEE | 5.13 | 3.99 ± 0.14 | – | 3.84 ± 0.059 | 2.87 ± 0.15 | 2.93 ± 0.19 | 4.62 ± 0.11 | 15 | 3.48 ± 0.22 | 4.67 ± 0.14 | 4.78 | 7.73 ± 0.15 |
